Measured values from US20050239706A1, “Modulation of fiaf and the gastrointestinal microbiota as a means to control energy storage in a subject” (Washington University in St. Louis, priority 2003, published 2005).

T1: LPL (Homo sapiens, UniProt P06858)
T1 sequence (P06858 28-475): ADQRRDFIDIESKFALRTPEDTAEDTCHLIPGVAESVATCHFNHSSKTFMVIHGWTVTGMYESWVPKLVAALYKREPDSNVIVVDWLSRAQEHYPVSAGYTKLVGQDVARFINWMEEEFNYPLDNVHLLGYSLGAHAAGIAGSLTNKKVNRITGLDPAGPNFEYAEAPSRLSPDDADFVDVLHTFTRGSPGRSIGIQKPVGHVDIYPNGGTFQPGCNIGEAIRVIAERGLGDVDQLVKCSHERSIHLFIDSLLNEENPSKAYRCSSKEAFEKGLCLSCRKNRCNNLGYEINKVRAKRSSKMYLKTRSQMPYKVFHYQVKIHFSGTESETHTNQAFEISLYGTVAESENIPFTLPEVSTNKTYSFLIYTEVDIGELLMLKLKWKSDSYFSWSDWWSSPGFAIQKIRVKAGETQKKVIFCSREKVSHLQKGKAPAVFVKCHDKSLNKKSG


Assays:
[1] = target: Lipoprotein lipase (LPL) (mouse) (UniProt P11152); experiment: cell-based or functional assay
Lipoprotein lipase (LPL) (mouse), sequence (P11152 28-474 limits assumed): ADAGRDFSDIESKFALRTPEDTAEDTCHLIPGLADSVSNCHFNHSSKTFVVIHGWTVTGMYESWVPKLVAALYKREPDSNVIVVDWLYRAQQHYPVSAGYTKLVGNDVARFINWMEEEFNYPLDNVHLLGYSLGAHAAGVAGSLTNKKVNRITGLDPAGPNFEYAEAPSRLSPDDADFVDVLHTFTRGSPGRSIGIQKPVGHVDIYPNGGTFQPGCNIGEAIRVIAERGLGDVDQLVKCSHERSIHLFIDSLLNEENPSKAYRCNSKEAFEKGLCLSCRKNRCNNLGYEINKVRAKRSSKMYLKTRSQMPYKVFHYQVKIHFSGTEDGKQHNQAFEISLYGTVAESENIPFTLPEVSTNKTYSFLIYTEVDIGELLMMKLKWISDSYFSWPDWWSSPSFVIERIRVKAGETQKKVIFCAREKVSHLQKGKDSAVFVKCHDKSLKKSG

[2] = target: T1, LPL; settings: in vitro; read-out: IC50 for inhibition of LPL; cited from earlier work

epididymal fat pad LPL activity, GF Fiaf-/- mice versus GF littermates containing the wild-type Fiaf allele [1] [% higher] | Molecule | IC50 [2] [nM]
67 | Fasting-induced adipose factor (Fiaf) (from UniProt Q9Z1P8 24-410) | 
 | Fiaf: secreted protein, a potent inhibitor of LPL in vitro (protein) QGRPAQPEPPRFASWDEMNLLAHGLLQLGHGLREHVERTRGQLGALERRMAACGNACQGPKGKDAPFKDSEDRVPEGQTPETLQSLQTQLKAQNSKIQQLFQKVAQQQRYLSKQNLRIQNLQSQIDLLAPTHLDNGVDKTSRGKRLPKMTQLIGLTPNATHLHRPPRDCQELFQEGERHSGLFQIQPLGSPPFLVNCEMTSDGGWTVIQRRLNGSVDFNQSWEAYKDGFGDPQGEFWLGLEKMHSITGNRGSQLAVQLQDWDGNAKLLQFPIHLGGEDTAYSLQLTEPTANELGATNVSPNGLSLPFSTWDQDHDLRGDLNCAKSLSGGWWFGTCSHSNLNGQYFHSIPRQRQERKKGIFWKTWKGRYYPLQATTLLIQPMEATAAS | 200
